Source: article PMC4118958, “Association of BLM and BRCA1 during Telomere Maintenance in ALT Cells” (PLoS ONE, 2014)

Biological target: BLM helicase, mutated in Bloom's syndrome (human (endogenous in U2OS), UniProt P54132 1-1417)
Test: cell-based or functional assay

Sequence of BLM helicase, mutated in Bloom's syndrome (P54132 whole entry, change not shown): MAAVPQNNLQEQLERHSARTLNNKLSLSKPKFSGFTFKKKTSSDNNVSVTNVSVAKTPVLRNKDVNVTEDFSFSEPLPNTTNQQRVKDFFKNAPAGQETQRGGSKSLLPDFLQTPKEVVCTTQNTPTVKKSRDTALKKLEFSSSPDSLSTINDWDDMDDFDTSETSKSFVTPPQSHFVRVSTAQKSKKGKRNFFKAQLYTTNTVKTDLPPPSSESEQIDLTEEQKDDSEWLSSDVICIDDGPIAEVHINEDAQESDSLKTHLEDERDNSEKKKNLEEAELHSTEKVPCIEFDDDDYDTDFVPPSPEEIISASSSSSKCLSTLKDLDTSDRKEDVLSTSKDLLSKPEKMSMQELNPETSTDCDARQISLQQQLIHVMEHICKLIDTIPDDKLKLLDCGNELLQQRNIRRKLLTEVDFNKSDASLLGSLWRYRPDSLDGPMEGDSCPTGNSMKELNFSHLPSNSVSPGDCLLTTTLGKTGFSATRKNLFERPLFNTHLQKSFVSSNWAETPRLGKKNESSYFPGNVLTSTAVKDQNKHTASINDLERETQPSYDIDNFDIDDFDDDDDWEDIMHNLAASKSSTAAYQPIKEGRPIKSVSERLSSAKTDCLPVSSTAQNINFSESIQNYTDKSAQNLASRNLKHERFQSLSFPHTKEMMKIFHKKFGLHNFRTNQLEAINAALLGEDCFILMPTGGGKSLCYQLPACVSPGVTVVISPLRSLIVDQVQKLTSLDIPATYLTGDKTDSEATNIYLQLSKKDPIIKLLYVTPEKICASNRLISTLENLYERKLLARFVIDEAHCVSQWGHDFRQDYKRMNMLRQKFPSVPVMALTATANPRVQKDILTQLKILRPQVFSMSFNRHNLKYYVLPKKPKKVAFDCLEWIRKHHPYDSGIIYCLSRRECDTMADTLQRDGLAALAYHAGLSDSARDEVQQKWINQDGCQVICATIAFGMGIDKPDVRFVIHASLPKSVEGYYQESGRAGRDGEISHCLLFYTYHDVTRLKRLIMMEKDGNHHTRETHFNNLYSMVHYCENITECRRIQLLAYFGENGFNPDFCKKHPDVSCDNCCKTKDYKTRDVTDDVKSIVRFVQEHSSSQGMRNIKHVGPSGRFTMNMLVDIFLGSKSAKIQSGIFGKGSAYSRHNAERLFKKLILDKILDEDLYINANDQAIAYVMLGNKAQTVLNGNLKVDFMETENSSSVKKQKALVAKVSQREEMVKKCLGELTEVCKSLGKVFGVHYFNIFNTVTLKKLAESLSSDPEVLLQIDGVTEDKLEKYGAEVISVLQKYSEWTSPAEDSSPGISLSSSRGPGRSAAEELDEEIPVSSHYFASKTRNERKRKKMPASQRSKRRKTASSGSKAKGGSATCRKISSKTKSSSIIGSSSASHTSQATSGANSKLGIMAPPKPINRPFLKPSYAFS

B1: BRCA1 tumor suppressor (natural protein, human (endogenous in U2OS), UniProt P38398 1-1863, looked up)
chain: MDLSALRVEEVQNVINAMQKILECPICLELIKEPVSTKCDHIFCKFCMLKLLNQKKGPSQCPLCKNDITKRSLQESTRFSQLVEELLKIICAFQLDTGLEYANSYNFAKKENNSPEHLKDEVSIIQSMGYRNRAKRLLQSEPENPSLQETSLSVQLSNLGTVRTLRTKQRIQPQKTSVYIELGSDSSEDTVNKATYCSVGDQELLQITPQGTRDEISLDSAKKAACEFSETDVTNTEHHQPSNNDLNTTEKRAAERHPEKYQGSSVSNLHVEPCGTNTHASSLQHENSSLLLTKDRMNVEKAEFCNKSKQPGLARSQHNRWAGSKETCNDRRTPSTEKKVDLNADPLCERKEWNKQKLPCSENPRDTEDVPWITLNSSIQKVNEWFSRSDELLGSDDSHDGESESNAKVADVLDVLNEVDEYSGSSEKIDLLASDPHEALICKSERVHSKSVESNIEDKIFGKTYRKKASLPNLSHVTENLIIGAFVTEPQIIQERPLTNKLKRKRRPTSGLHPEDFIKKADLAVQKTPEMINQGTNQTEQNGQVMNITNSGHENKTKGDSIQNEKNPNPIESLEKESAFKTKAEPISSSISNMELELNIHNSKAPKKNRLRRKSSTRHIHALELVVSRNLSPPNCTELQIDSCSSSEEIKKKKYNQMPVRHSRNLQLMEGKEPATGAKKSNKPNEQTSKRHDSDTFPELKLTNAPGSFTKCSNTSELKEFVNPSLPREEKEEKLETVKVSNNAEDPKDLMLSGERVLQTERSVESSSISLVPGTDYGTQESISLLEVSTLGKAKTEPNKCVSQCAAFENPKGLIHGCSKDNRNDTEGFKYPLGHEVNHSRETSIEMEESELDAQYLQNTFKVSKRQSFAPFSNPGNAEEECATFSAHSGSLKKQSPKVTFECEQKEENQGKNESNIKPVQTVNITAGFPVVGQKDKPVDNAKCSIKGGSRFCLSSQFRGNETGLITPNKHGLLQNPYRIPPLFPIKSFVKTKCKKNLLEENFEEHSMSPEREMGNENIPSTVSTISRNNIRENVFKEASSSNINEVGSSTNEVGSSINEIGSSDENIQAELGRNRGPKLNAMLRLGVLQPEVYKQSLPGSNCKHPEIKKQEYEEVVQTVNTDFSPYLISDNLEQPMGSSHASQVCSETPDDLLDDGEIKEDTSFAENDIKESSAVFSKSVQKGELSRSPSPFTHTHLAQGYRRGAKKLESSEENLSSEDEELPCFQHLLFGKVNNIPSQSTRHSTVATECLSKNTEENLLSLKNSLNDCSNQVILAKASQEHHLSEETKCSASLFSSQCSELEDLTANTNTQDPFLIGSSKQMRHQSESQGVGLSDKELVSDDEERGTGLEENNQEEQSMDSNLGEAASGCESETSVSEDCSGLSSQSDILTTQQRDTMQHNLIKLQQEMAELEAVLEQHGSQPSNSYPSIISDSSALEDLRNPEQSTSEKAVLTSQKSSEYPISQNPEGLSADKFEVSADSSTSKNKEPGVERSSPSKCPSLDDRWYMHSCSGSLQNRNYPSQEELIKVVDVEEQQLEESGPHDLTETSYLPRQDLEGTPYLESGISLFSDDPESDPSEDRAPESARVGNIPSSTSALKVPQLKVAESAQSPAAAHTTDTAGYNAMEESVSREKPELTASTERVNKRMSMVVSGLTPEEFMLVYKFARKHHITLTNLITEETTHVVMKTDAEFVCERTLKYFLGIAGGKWVVSYFWVTQSIKERKMLNEHDFEVRGDVVNGRNHQGPKRARESQDRKIFRGLEICCYGPFTNMPTDQLEWMVQLCGASVVKELSSFTLGTGVHPIVVVQPDAWTEDNGFHAIGQMCEAPVVTREWVLDSVALYQCQELDTYLIPQIPHSHY
fold stimulation of BLM helicase activity by 3 nM full-length BRCA1 on a non-telomeric fork substrate: ~1.9 fold
fold stimulation of BLM helicase activity by 3 nM full-length BRCA1 on the fork substrate with two telomeric repeats: ~3.6 fold
initial unwinding rate of BLM (1.2 nM) on the telomeric fork in the presence of 3 nM BRCA1, fold increase: 1.7 fold
